Blank lines part the entries; values can stand above or below the molecule they belong to.
Assays:
[1] = target: T1, His-CD47 (recombinant human CD47) (Homo sapiens, UniProt Q08722); assay: Solid-phase CD47 ELISA at pH 6 or pH 8; type: binding; conditions: pH 6.0 versus pH 8.0
T1 construct: His; purchased AcroBiosystems
Procedure: Binding by soluble anti-CD47 mAbs to immobilized recombinant human CD47 and to human CD47 expressed on cells was measured in vitro. For the in vitro binding to recombinant CD47, His-CD47 (AcroBiosystems) was adsorbed to high-binding microtiter plates overnight at 4° C. The wells were washed and varying concentrations of anti-CD47 mAbs were added to the wells in buffers with a of either pH 6 or pH 8 for 1 hour. The wells were washed and then incubated with HRP-labelled secondary antibody for 1 hour at pH 6 or pH 8 followed by addition of peroxidase substrate. The apparent affinities were calculated using non-linear fit model (Graphpad Prism).

Jurkat cells [2] = assay: Phagocytosis of tumor cells by human macrophages; type: cell-based; conditions: 1 μg/ml mAb
Procedure: Human derived macrophages were derived from leukapheresis of healthy human peripheral blood and incubated in AIM-V media (Life Technologies) for 7-10 days. For the in vitro phagocytosis assay, macrophages were re-plated at a concentration of 1×10^4 cells per well in 100 ul of AIM-V media in a 96-well plate and allowed to adhere for 24 hrs. Once the effector macrophages adhered to the culture dish, the target human cancer cells (Jurkat) were labelled with 1 μM 5(6)-Carboxyfluorescein diacetate N-succinimidyl ester (CFSE; Sigma Aldrich) and added to the macrophage cultures at a concentration of 5×10^4 cells in […] of AIM-V media (5:1 target to effector ratio). VLX4, VLX8, and VLX9 CD47 mAbs (1 μg/ml) were added immediately upon mixture of target and effector cells and allowed to incubate at 37° C. for 2-3 hours. After 2-3 hrs, all non-phagocytosed cells were removed and the remaining cells washed three times with phosphate buffered saline (PBS; Sigma Aldrich). Cells were then trypsinized, collected into microcentrifuge tubes, and incubated in 100 ng of allophycocyanin (APC) labelled CD14 antibodies (BD Biosciences) for 30 minutes, washed once, and analyzed by flow cytometry (Accuri C6; BD Biosciences) for the percentage of CD14^+ cells that were also CFSE^+ indicating complete phagocytosis.

hRBCs = assay: Hemagglutination of washed human red blood cells; type: cell-based
Procedure: Hemagglutination of hRBCs was assessed following incubation of hRBCs with various concentrations of chimeric and humanized VLX4, VLX8, and VLX9 mAbs in vitro essentially as described by Kikuchi et al. Biochem Biophys Res. Commun (2004) 315:912-918. Blood was obtained from healthy donors, diluted (1:50) in PBS/1 mM EDTA/BSA and washed 3 times with PBS/EDTA/BSA. hRBCs were added to U-bottomed 96 well plates with equal volumes of the antibodies (75 μl of each) and incubated for 3 hrs at 37° C. and overnight at 4° C.

Jurkat cells [3] = assay: Cell death by soluble mAb, annexin V / 7-AAD; type: cell-based, human; conditions: 1 μg/ml, 24 hrs
Procedure: Induction of cell death by soluble anti-CD47 mAbs is measured in vitro (Manna et al. (2003) J. Immunol. 107 (7): 3544-53, Kikuchi et al. Biochem Biophys Res. Commun. 315: 912-8, 2004), Pettersen et al. J. Immuno. 162: 7031-7040, 1999), Manna et al. Cancer Research, 64: 1026-1036, 2004). For the in vitro cell death assay, 1×10^5 transformed human T cells (Jurkat cells) were incubated with soluble humanized VLX4, VLX8, and VLX9 CD47 mAbs (1 μg/ml) for 24 hrs at 37° C. As cell death occurs, mitochondrial membrane potential is decreased, the inner leaflet of the cell membrane is inverted, exposing phosphatidylserines (PS), and propidium iodide (PI) or 7-aminoactinomycin D (7-AAD) is able to incorporate into nuclear DNA. In order to detect these cellular changes, cells were then stained with fluorescently labelled annexin V and PI or 7-aminoactinomycin D (7-AAD) (BD Biosciences) and the signal detected using an Accuri C6 flow cytometer (BD Biosciences). The increase in PS exposure is determined by measuring the percent increase in annexin V signal and the percent of dead cells by measuring the percent increase in PI or 7-AAD signal. Annexin V positive (annexin V^+) or annexin V positive/7-AAD negative (annexin V^+/7-AAD^−) cells are observed in early stages of cell death and annexin V positive/7-AAD positive (annexin V^+/7-AAD^+) cells are dead cells. […]

pH dependent binding to His-CD47 [1]: did not display pH dependence
B1: VLX9 IgG (murine): murine VLX9 anti-CD47 antibody (antibody, V domains shown)
VH: QVQLQQFGAELAKPGASVQMSCKASGYTFTNYWIHWVKQRPGQGLEWIGYTDPRTDYTEYNQKFKDKATLAADRSSSTAYMRLSSLTSEDSAVYYCAGGGRVGLGYWGHGSSVTVSS
VL: DVFMTQTPLSLPVSLGDQASISCRSSQNIVQSNGNTYLEWYLQKPGQSPKLLIYKVFHRFSGVPDRFSGSGSGTDFTLKISRVEAEDLGVYYCFQGSHVPWTFGGGTKVEIK

B2: VLX9 IgG2 (xi): chimeric VLX9 anti-CD47 mAb, human IgG2 (antibody)
heavy: QVQLQQFGAELAKPGASVQMSCKASGYTFTNYWIHWVKQRPGQGLEWIGYTDPRTDYTEYNQKFKDKATLAADRSSSTAYMRLSSLTSEDSAVYYCAGGGRVGLGYWGHGSSVTVSSASTKGPSVFPLAPCSRSTSESTAALGCLVKDYFPEPVTVSWNSGALTSGVHTFPAVLQSSGLYSLSSVVTVPSSNFGTQTYTCNVDHKPSNTKVDKTVERKCCVECPPCPAPPVAGPSVFLFPPKPKDTLMISRTPEVTCVVVDVSHEDPEVQFNWYVDGVEVHNAKTKPREEQFNSTFRVVSVLTVVHQDWLNGKEYKCKVSNKGLPAPIEKTISKTKGQPREPQVYTLPPSREEMTKNQVSLTCLVKGFYPSDIAVEWESNGQPENNYKTTPPMLDSDGSFFLYSKLTVDKSRWQQGNVFSCSVMHEALHNHYTQKSLSLSPGK
light: DVFMTQTPLSLPVSLGDQASISCRSSQNIVQSNGNTYLEWYLQKPGQSPKLLIYKVFHRFSGVPDRFSGSGSGTDFTLKISRVEAEDLGVYYCFQGSHVPWTFGGGTKVEIKRTVAAPSVFIFPPSDEQLKSGTASVVCLLNNFYPREAKVQWKVDNALQSGNSQESVTEQDSKDSTYSLSSTLTLSKADYEKHKVYACEVTHQGLSSPVTKSFNRGEC
phagocytosis of Jurkat cells by human macrophages (Jurkat cells [2]): increased phagocytosis | HA hRBC (hRBCs; hemagglutination, chimeric (xi) mAbs, Table 1): Yes | visible hemagglutination of hRBCs (hRBCs; result in words, mAb concentrations from 50 μg/ml down): caused visible hemagglutination | PS exposure and cell death of Jurkat cells (annexin V^+, annexin V^+/7-AAD^−, annexin V^+/7-AAD^+) (Jurkat cells [3]): induced increased PS exposure and cell death

From patent US20220313819A1, “COMBINATION THERAPY FOR THE TREATMENT OF SOLID AND HEMATOLOGICAL CANCERS” (Arch Oncology, Inc., priority 2019, published 2022)
